In PMC8440579:

Biological target: YukE with nsAA 2 (p-azidophenylalanine) incorporated at position 44, YukE(W44TAG) (B. subtilis) (UniProt C0SP85)
Experiment: cross-linking; in vivo photo-crosslinking through p-azidophenylalanine (nsAA 2) in B. subtilis cells resuspended in 1x PBS, UV 365 nm for 15 min or 60 min on ice; lysates on 17% SDS-PAGE without reductant, anti-YukE immunoblot

YukE with nsAA 2 (p-azidophenylalanine) incorporated at position 44, YukE(W44TAG) (from UniProt C0SP85 1-97) (natural protein)
crosslinking efficiency: 100% | stoichiometry N: 2
